According to US20180186897A1 (INSTITUTE FOR RESEARCH IN BIOMEDICINE, published 2018):
Where a chain is given by its changes, count along the chain named.

B1: MGC7 (antibody)
VH: EVQLVESGGDLVQPGGSLRLSCAASGFTFRNYWMSWVRQTPGKGLEWVANIRQDGSEKYYVDSVKGRFTISRDNAKNLLYLQMNSLRAEDTAVYYCVRDKFCSDENHMHVADDLPRPSISPEPGTVIPLGSHVTFVCRGPVGVQTFRLEKDRRSTYNDTEDVSQPSPSESEARFRIDSVTEGNAGLYRCVYYKPPKWSDQSDFLELLVKGEDVTWALFPHCGADGEDSDYYMDVWGKGTTVTVSS
VL: DIQMTQSPSSVSASVGDRVTITCRASQGLSTWLAWYQQKPGKAPKILIYAASSLQSGVPSRFSGSGSGTDFTLTISSLQPEDFATYYCQQANSFPLTFGGGTKVEIK
B2: MGD41 (antibody)
VH: EVQLVESGPGLVKPSGTLSVTCTISGGSINTDKWWTWVRQPPGKGLEWVGEVLHTGSTNYNPSLRGRVTISVDKSKNQFSLRLSSVTAADTAVYYCATISTLRPQRDIEDLPRPSLSAEPGTVVPLGSHVTFVCRGPVGVQTFRLERESRSTYNDTEDVSQPSPFESEARFRIDSVSEGNAGPYRCIYYKSPKWSDQSDYVELLVKGEDVTWAPPQSQLAPRACPQGELRTSTDIFSMNVWGKGTTVTVSS
VL: AIRMTQSPSSLSAFTGDRVTISCRASQDIGNYLDWYHQKPGRAPKLLIHGASTLLTGVPSRFSGSGSGTDFTLNITCLQSGDFGIYYCLQYYSSPPAFGPGTRLEIK
B3: MGC4 (antibody)
VH: EVQLVESGGGLVQPGGSLRLSCEGSGFNSRSYWMTWVRQAPGKGLEWVASINQDGTEKNYVDSVKGRFTISRDSAKNSLYLQMSSLRADDTAVYYCARDRFCGGESHLHGEEDLPRPSISAEPDTVIPLGSHVTFVCRGPVGVHTFRLERGWRYNDTEDVSQAGPSESEARFRIDSVREGNAGLYRCIYYIAPKWSEQSDYLELRVKGGDVTWALLTYCGGDGEESDYPMDVWGKGTTVTVSS
VL: QTVVTQEPSLTVSPGGTVTLTCASSTGPVTSAYYPNWFQQKPGQAPRSLIYSINKKHSWTPARFSGSLLGGKAALTLSGVQPEDEADYYCLLSCGGAQPWVFGGGTKLTVQ
B4: MGD47 (antibody)
VH: QVRLQESGPGLVKPSGTLSLTCTVSGGSISGYKWWSWVRQAPGKGLEWIGQVYDDGDTNYNPDLKGRVALSVDKSKSRFSLSLASVTAADTAIYFCATISPLRPQSDTGDLPRPSISAEPGTAIPLGSQVTFVCRGPIGVQTFRLERESRALYNDSEDVSQVSPSASEARFRIDSVSEGNAGPYRCIYYKARRWSDQSDYLELLVKGEDVTWALPQSQLAPRACPQEDLNISTDIFSTNVWGKGTTVTVSS
VL: AIRMTQSPASLSASVGDRVTITCRTSQDVGNYLDWYQQKPGKAPKLLIHGASTLQAGVPSRFNGSGSGTDFTLGISCVQSGDFAIYYCQQYYTSPPVFGQGTRLEIK
B5: MGD55 (antibody)
VH: QVQLQESGPGLVKPSGTLSLTCTVSGGSISAYKWWSWVRQAPGKGLEWIGQVYHNGNTNYNPSLKGRVAMSVDKSKNRFSLRLASVTAADTAVYYCATISPLRPQSDTDDLPRPSISAEPGTVIPLGSHVTFVCRGPIGVQTFRLERESRSLYSDTEDVSQVSPFASEARFRIDSVSEGNAGPYRCIYYKDRKWSDQSDYLELLVKGEDVTWALPQSQLAPRACPQEELNISTDIFSMNVWGKGTTVTVSS
VL: B4 VL with V15I, A56T, N63S, S67A, G74N, S76T, V78L, I85M, T93S, V97G
B6: MGD56 (antibody)
VH: QVQLQESGPGLVKPSGTLSLTCAVSGGSITTNNWWSWVRQTPGKGLEWIGEIFRSGTTNYNPSLKSRVAISLDKSKNQFSLKLTSVTAADTAVYYCATASPFKSQRDTKDLPRPSLSAEPGTVIPLGSHVTFVCRGPVGVQTFRLQRESRSLYNDTEDVSHPSPSESEARFRIDSVSEGNAGPYRCVYYKSSKWSEESDCLELLVKTEDVTWARPQPQLDPRACPRGDLRISTDVYYMDVWGKGTTVTVSS
VL: AIRMTQSPSSLSASTGDRVTITCRASQAITSYLAWYRQKPGKAPDLLIYNASTLQSGVPSRFSASGSGTDFALTITGLQSEDFVIYFCQHYYTYPPAFGQGTRLEIK
B7: MGC17 (antibody)
VH: EVQLVESGGGLVQPGGSLKLSCVASGFNFRKSWMSWVRQAPGKGLEWVANIREDGSKAYYVDSVKGRFTVSRDNAKNSLYLQINSLRADDTAVYYCARDRFCSDDEDHSHGAEDLPRPSISAEEGTVIPLGSRLTFVCRGPVGVHTFRLERDRRSTYNDTEDVSHPSPSESEARFRIDSVSEGNAGLYRCVYYKSPEWSKQSDYLELLVKGQEVTWALFTSCGGDGEVPDYDMDVRGKGTTVTVSS
VL: DIVMTQSPDSLAVSLGERATINCKSSQSVLYRSKNKKYLAWFQQRPGQPPKVLIYWTSTRASGVPDRFSGSGSGTDFTLTISSLQADDVAVYYCQQYFIFPYTFGQGTKLEIR
B8: MGC32 (antibody)
VH: EVQLVESGGGLVQPGGSLRLSCVASGFNFRKSWMGWVRQAPGKGLEWVANIREDGSESFYADSVKGRFTVSRDNAKKSLYLHINSLRAEDTAVYYCARDRFCNDDEIHRHGQEDLPRPSISAAEGTVIPLGSHVTFVCRGPVGVQTFRLEKDSRSIYNDTENVSQPSPSESEARFRIDSVSEGNAGLYRCVYYKAPKWSAQSDYLELLVKGQEVTWALFTSCGGDGEEPDYDMDVRGKGTTVTVSS
VL: B7 VL with V3L, K37N, R45K, W56S, S69T, D87E, Q95L, F98Y, F100T, R113K
B9: MGC26 (antibody)
VH: EVQLVDSGGGLVQPGGSLRLSCAASGFTFSTYWMTWVRQTPGKGLEWVASIKQDGTERYYVDSVKGRFIISRDNAKNSLYLQMHSLRAEDTAVYYCVRDRFCRDHMHIEEDLPRPSISPEPATVIPLGSHVTIVCRGPVGVETFRLQKESRSLYNDTEDVSQPSPSESEARFRIDSVSEGHGGLYRCLYYKSSKWSEQSDYLEMLVKGEDVTWALFPYCGGDGEESDYYMDVWGKGTTVTVSS
VL: DIQLTQSPSTLSASVGDRVTISCRASQRLSRSLAWYQQRPRKAPNLLIYKASPLEIGGPSRFTGSGSGTEFTLTISSLQPDDSATYYCQQYSNYSYSFGQGTKLEIR
B10: MGC28 (antibody)
VH: EVQLVESGGGLVQPGGSLRLSCEASGFTFSSYWMTWVRQAPGKGLEWVANINQDGSERYYVDSVKGRFTISRDTVKNSLYLQMNNLRAEDTAVYYCARQRFCSDGSLFHGEDLPRPTISAETGTVISLGSHVTFVCRGPLGVQTFRLERESRSRYSETEDVSQVGPSESEARFRIDSVSEGNAGLYRCIYYKPPKWSEQSDYLELRVKGEDVTWALLTYCGGDRDESDYYMDVWGKGTTVTVSS
VL: QTVVTQEPSLTVSPGGTVTLTCASSTGSVTSGSFPNWFQQTPGQAPRSLIYSTTKKHSWTPARFSGSLLGGKAALTVSDTQPEDEAEYYCLLYCGGGQPWVFGGGTKLTVL
B11: MGC33 (antibody)
VH: B10 VH with Q3H
VL: B10 VL with L111Q

Assays:
Test in all cases: flow cytometry, staining of IEs
[1] = molecular target: erythrocytes infected with P. falciparum field isolate 11014
[2] = molecular target: erythrocytes infected with P. falciparum field isolate 9106
[3] = molecular target: erythrocytes infected with P. falciparum field isolate 10936
[4] = molecular target: erythrocytes infected with P. falciparum field isolate 10975
[5] = molecular target: erythrocytes infected with P. falciparum field isolate 9215
[6] = molecular target: erythrocytes infected with P. falciparum field isolate 9775
[7] = molecular target: erythrocytes infected with P. falciparum field isolate 9605
[8] = molecular target: erythrocytes infected with P. falciparum field isolate 11019

Binder	% parasite recognition [1] [%]	% parasite recognition [2] [%]	% parasite recognition [3] [%]	% parasite recognition [4] [%]	% parasite recognition [5] [%]	% parasite recognition [6] [%]	% parasite recognition [7] [%]	% parasite recognition [8] [%]
B1	2.9	6.9	1.7	0.7	19.3	4.6	22.8	13.8
B2	6.6	3.8	6.1	7.3	14.7	8.6	17.2	6.8
B3	3.6	6.7	2.3	6.7	21.7	6.1	22.2	31.1
B4	10.2	10.7	11.3	11.2	22.3	14.4	28.7	24.6
B5	14.7	14.3	13.3	15.6	38.8	19.4	37.2	33.1
B6	9.5	3.3	2.4	6.7	12	6.6	17.3	4.3
B7	1.6	1.3	2.4	1.5	16.7	2.5	6.8	7.1
B8	4.5	7.8	2.9	3.2	13.1	7.9	22.9	38.1
B9	5.4	8.5	3.6	7.3	9.5	3.4	21.1	50.8
B10	2.8	7.5	3	12.3	10.8	9.8	20.9	30
B11	2.9	7.5	3.6	11.5	11.5	9.7	22.3	23.5
